Measurements: publication PMC10444775 (Scientific Reports, 2023)

Molecular target: SARS-CoV-2 PreS Spike ECD protein, biotinylated via a C-terminal Avi tag (SARS-CoV-2, Wuhan wild type, K986P | V987P | 682-685 RRAR to GSAS, biotin on the Avi tag)
Experiment: SPR
Settings: both partners purified

B1: 7A9 VHH (VHH)
VHH: QVQLVESGGGLVQAGGSLRLSCSASGGTASRSAMGWFRQAPGKEREFVAGISRRNSGSTYVADSYEDSVKGRFTISRDNAKNTIYLQMNSLKPEDTAVYYCAAEPTLGWYVPRRSVEYEYWGQGTQVTVSS
notes: also called VHH 7A9; 7A9 VHH monomer; source: ExpiCHO, transiently transfected, purified
- Kd: 220 pM
